The target of the experiment is human BCMA (huBCMA), full length, on cells (human) (UniProt Q02223). As to the kind of experiment: FACS, H929 cells, negative control. For orientation: Flow cytometry measures light scatter and fluorescence of single cells or particles in a stream.

Drawing on US20170165373A1, this text covers MFI for one substance.

Sequence of human BCMA (huBCMA), full length, on cells (human) (Q02223 whole entry N81S): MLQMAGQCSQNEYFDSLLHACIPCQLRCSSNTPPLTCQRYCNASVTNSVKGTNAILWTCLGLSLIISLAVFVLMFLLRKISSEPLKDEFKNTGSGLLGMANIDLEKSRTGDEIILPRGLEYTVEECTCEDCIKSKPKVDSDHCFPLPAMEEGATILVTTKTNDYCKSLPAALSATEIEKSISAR

hu IgG1 (antibody) had an MFI of 8.
